Data published in the nanobody polyreactivity screen of Harvey et al. (2022).

Assay: yeast display, Sf9 membrane polyspecificity reagent, FACS + sequencing; frameworks hold sequencing errors
Outline: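 Genes from sorted yeast were amplified by colony PCR, read by MiSeq 2 × 250 sequencing and filtered on CDR length. These cells carried a synthetic nanobody library in Saccharomyces cerevisiae BJ5465 and were sorted by FACS into low and high (top ~1%) gates on anti-HA and streptavidin fluorescence. Polyreactivity is labelled according to the gate of origin.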

Row | Sequence | polyreactivity (PSR sort gate)
1 | QVQLVESGGGLVQAGGSLRLSCAASGRIFDRYAMGWYRLAPGKERELVAAITTSSGGSTYYADSVKGRFTISRDNAMNTVYLQMQSLNPEDTAVYYCAADRRYNVIGEFGYWGQVTQVTVSS | low polyreactivity
2 | QVQLVESGGGLVQAGGSLRLSCAASGRIFDRYVMGWYRQAPVKERALVAAISDGGSTYYADSVKGRFTISRDNAKNTVYLQMISLKPEDTAVYYCNAAFYPNENYYLIYDYWGQGTQVTVSS | low polyreactivity
3 | QVQLVESGGGLVQAGGSLRLSCAASGRIFDSNAMGWYRQAPGKERELVATISYRGGRTYYADSVKGRFTISRDNAKNTVYLQMNSLKPEDTAVYYCAVRYWVSGFRAGYYWGQGTQVTVSS | high polyreactivity
4 | QVQLVESGGGLVQAGGSLRLSCAASGRIFDTYAMGWDRPAPRKERELVAAINSGGRTYYADSVKGRFTISRDNAKNTVYVQMNSLKPEDTAVYYCAAYITYSYGRYGSWGQGTQVTVSS | high polyreactivity
5 | QVQLVESGGGLVQAGGSLRLSCAASGRIFDTYAMGWYRQAPGKERELVAAITRRGGSTYYADSVKGRFTISRDNAKNTVYLQMNSLKPEDSAVYYCAKSLVNRHYDYWGQGTQVTVSS | low polyreactivity
6 | QVQLVESGGGLVQAGGSLRLSCAASGRIFDVNDMGCYRQAPGKERELVAAITYSGTDTYYADSVKGRITISRDNAKNTVYLQMNSLKPEDTAVYYCAAEFTGWEYIGRDYWGQGTQVTVSS | low polyreactivity
7 | QVQLVESGGGLVQAGGSLRLSCAASGRIFDYNAMGWYRQAPGKERELVAAINSGGSTYADSVKGRFTISRDNAKNTVYLQMNSLKPEDTAVYYCAKSLGQTDWEYDSWGQGTQVTVSS | low polyreactivity
8 | QVQLVESGGGLVQAGGSLRLSCAASGRIFDYNAMGWYRQAPGKERELVAAITKDDGSTYYADSVKGRFTISRDNAKNTVYLQMNSLKPEDTAVYYCAAEFYWTYVDIWYDYWGQGTQVTVSS | low polyreactivity
9 | QVQLVESGGGLVQAGGSLRLSCAASGRIFDYNTMGWSRQAPGKERELVAAITGGTGSTYYADSVKGRFTISRDNAKNTVYLQMNSLKPEDTAVYYCAAGFHKRVTPEILYDYWGQGTQVTVSS | low polyreactivity
10 | QVQLVESGGGLVQAGGSLRLSCAASGRIFDYYAMGWYRQAPGKERELVAAINRGGNTYYADSVKGRFTISRDNAKNTVYLQMNSLKPEETSVYYCNAQWYYLRYRYDYWGQGTQVTVSS | high polyreactivity
11 | QVQLVESGGGLVQAGGSLRLSCAASGRIFDYYAMGWYRQAPGKERELVASISRSGGSTYYADSVKGRFTISRDNAKNTVYLQMNSLKPEDTAVYYCAARRGYYYGRVGYWGQGTQVTVSS | high polyreactivity
12 | QVQLVESGGGLVQAGGSLRLSCAASGRIFDYYTMGGYRQAPGKETELVAAINWSGGSTYYADSVKGRFTISRDNAKNTVYLQMNSLKPEDTAVYYCATLSYGREYGYWGQGTQVTVSS | low polyreactivity
13 | QVQLVESGGGLVQAGGSLRLSCAASGRIFDYYTMGWYRQAPGKERELVAAITWIGGSTYYADSVKGRFTISRDNAKNTVYLQMKSLKPEETAVYYCYAEGTALPYRADTVGGYYYWGQGTQVTVSS | low polyreactivity
14 | QVQLVESGGGLVQAGGSLRLSCAASGRIFEHNAMGWYRQAPGKEREFVAAISSSGGSTYYADSVKGRFTISRDNAKNTVYLQMNSLKPEDTAVYYCNAGSTYYERNYWGQGTQVTVSS | low polyreactivity
15 | QVQLVESGGGLVQAGGSLRLSCAASGRIFEHNTMGWYRQAPGKERELVAAINWRGGSTYYADSVKGRFTISRYNAKNTVYLQMNSLKPEDTAVYYCNKYWWSYSYASGYNYWGQGTQVTVSS | high polyreactivity
16 | QVQLVESGGGLVQAGGSLRLSCAASGRIFEHYAMGWYRQAPGKERELVAAITSSGDSTYYADSVKGRFTISRDNAKNTVYLQMNSLKPEDTAVYYCNAVAYISYLWGYYLSTPYDYWGQGTQVTVSS | high polyreactivity
17 | QVQLVESGGGLVQAGGSLRLSCAASGRIFEHYAMGWYRQAPGKERELVASISSGDRTNYADSVKGRFTISRDNAKNTVYLQMNSLKPEDTAVYYCNALQLYGKGKRVGFGYWGQGTQVTVSS | low polyreactivity
18 | QVQLVESGGGLVQAGGSLRLSCAASGRIFENDMGWYRQAPGKERELVATIRSDGSTNYADSVKGRFTISRDNAKNTVYLQMNSLKPEDTAVYYCAADYLGPDYFFFSNYPYDYWGQGTQVTVSS | low polyreactivity
19 | QVQLVESGGGLVQAGGSLRLSCAASGRIFEPYTMGWYRQAPGKEREFVATITASGDSTYYADSVKGRFTISRDNAKNTVYLQMNSLKPEDTAVYYCAAAPFGGYEYDYWGQGTQVTVSS | high polyreactivity
20 | QVQLVESGGGLVQAGGSLRLSCAASGRIFERNAMGWYRQAPGKERELVAAITYNGGRTYYADSVKGRFTISRDNAKNTVYLQMNSLKPEDTAVYYCNAQSRVTRSSYRGSPRYDYWGQGTQVTVSS | low polyreactivity
21 | QVQLVESGGGLVQAGGSLRLSCAASGRIFERNAMGWYRQAPGKERELVARITSGGGTYYADSVKGRFTISRDNAKNSVYLQMNSLKPEDTAVYYCAVQYLYRKYRRYDYWGQGTQVTVSS | high polyreactivity
22 | QVQLVESGGGLVQAGGSLRLSCAASGRIFERYAMGWYRQEPGKERELVAGISISGGGTYYADSVKGRFTISRDNAKNTVYLQMNSLKPEDTAVYYCAGTFPREEYGYWGQGTQVTVSS | low polyreactivity

Row | Sequence | polyreactivity (PSR sort gate)
23 | QVQLVESGGGLVQAGGSLRLSCAASGRIFERYPMGWYRQAPGKERELVAGISISGGGTYYADSVKGRFTISRDTAKNTVYLQRNSLKPEDTAVSYCAATFPREEYGYWGQGTLVTVSS | low polyreactivity
24 | QVQLVESGGGLVQAGGSLRLSCAASGRIFESYAMGWYRQAPGKERELVAAISSGGGTTYYADSVKGRFTISRDNAKNTVYLQMNSLKPEDTAVYYCAADALSDEYDYWGQGTQVTVSS | low polyreactivity
25 | QVQLVESGGGLVQAGGSLRLSCAASGRIFEVYAMGWYRQAPGKERELVAAIRSGGNTYYADSVKGRFTISRDNAKNTVYLQMISLKPEDTAVYYCAARYKPPFGGYTYYYWGQGTQVTVSS | high polyreactivity
26 | QVQLVESGGGLVQAGGSLRLSCAASGRIFEVYAMGWYRQAPGKERELVAAITSSGGSRTYYADSVKGRFTISRDNAKNTVYLQMNSLKPEDTAVYYCAASTHRGRYKRYDYWGQGTQVTVSS | high polyreactivity
27 | QVQLVESGGGLVQAGGSLRLSCAASGRIFFAYAMGWYRQAPGKERELVAAIRFSGGTTYYADSVKGRLTFSRDNAKNTVYLQMNSLKQEDTAVYYFAAGRRRSSSGYGYWGKGTQVTVSS | high polyreactivity
28 | QVQLVESGGGLVQAGGSLRLSCAASGRIFFFYAMGWYRQAPGKERELVATITWTDGSTDYADSVKGRFTISRDNAKNTVYLQMNSLKPEDTAVYYCAKDEYVSRYDYWGQGTQVTVSS | low polyreactivity
29 | QVQLVESGGGLVQAGGSLRLSCAASGRIFFIYAMGWYRPAPGKERELVAAISSSGGTTYYADSVKGRFTISRDNAKNTVYLQMNSLKPEDTAVYYCAARSAATHWTFLFYYDFDYWGQGSQVTVSS | low polyreactivity
30 | QVQLVESGGGLVQAGGSLRLSCAASGRIFFKNAMGWYRQAPGKDRELVAAISWSGGRTYYADSVKGRFTISRDNAKNTVYLQMNSLKPEDSAVYYCATRYHVGKYLYGYWGQGTQVTVSS | high polyreactivity
31 | QVQLVESGGGLVQAGGSLRLSCAASGRIFFKNAMGWYRQAPGKERELVAGISWSGGRTYYADSVKGRFTISRDNAKNTVYLQMNSLKPEDTAVYYCNAGSSFYRSLRYEYWGQGTQVTVSS | high polyreactivity
32 | QVQLVESGGGLVQAGGSLRLSCAASGRIFFPYAMGWYRQAPGKEREFVAAITTGCGSTYYADSVKGRFTISRDNAKNTVYLQMNSLKPEDTAVYYCAKRTYSRKFRGAYNYWGQGTQVTVSS | high polyreactivity
33 | QVQLVESGGGLVQAGGSLRLSCAASGRIFFPYDMGWYRQAPGKERELVAAITNSGGRTYYADSVKGRFTISRDNAKNTVYLQMNSLKPEDTAVYYCNADAYEFRWVKHYDYWGQGTQVTVSS | low polyreactivity
34 | QVQLVESGGGLVQAGGSLRLSCAASGRIFFRYAMGWYRQAPGKERELVASIRFRGGSTYYADSVKGRFTISRDNAKNTVYLQLNSLKPVDTAVYYCATPGSFTGTQRTGDYWGQGTQVTVSS | high polyreactivity
35 | QVQLVESGGGLVQAGGSLRLSCAASGRIFFSYAMGWYRQAPGKERELVAAINGRGGSTYYADSVKGRFTISRDNAKNTVYLQMNSLKPEDTAVYYCAATAFSKGSSWKPYYYWGQGTQVTVSS | low polyreactivity
36 | QVQLVESGGGLVQAGGSLRLSCAASGRIFFVNAMGWYRQAPGKERELVAAISWSGGNTNYADSVKGRFTISRDNAKNTVYLQMNSLKPEDTAVYYCAADNSVGEYQRVDYDYWGQGTQVSVSS | low polyreactivity
37 | QVQLVESGGGLVQAGGSLRLSCAASGRIFFVNTMGWYRQAPVKERELVATISCSGGSTYYADSVKGRFTISRDNAKNTVYLQMNTLKPEDTAVYYCNRSLTGYDELGYPVPYTYDYWGQGTQVTVSS | low polyreactivity
38 | QVQLVESGGGLVQAGGSLRLSCAASGRIFFWYAMGWYRQAPGTERELVAGITSGGSTNYADSVKGRFTISRDNAKNTVYLQMNSLKPEDTAVYYCAKRSYRTHTYDYWGQGTQVTVSS | low polyreactivity
39 | QVQLVESGGGLVQAGGSLRLSCAASGRIFFYNAMGWYRQAPGKERELVAGISRSGTSTYYADSVKGRFTISRDNAKNTVYLQMNSLKPEDTAVYYCAADAWSVILWREMDYWGQGTQVTVSS | low polyreactivity
40 | QVQLVESGGGLVQAGGSLRLSCAASGRIFFYYAMGWYRQAPGKERELVATISYSGGGTYYADSVKGRFTISRDNAKNTVYLQMNSLKPEDTAVYYCNARWGTPYYIQDFDYWGQGTQVTVSS | low polyreactivity
41 | QVQLVESGGGLVQAGGSLRLSCAASGRIFFYYVMGWYRQAPGKERELVAAITRSGGSTYYADSVKGRFTISRDNAKNTVYLQMNSLKPEDTAVYYCSVGDGFEYDWGQGTQVTVSS | low polyreactivity
42 | QVQLVESGGGLVQAGGSLRLSCAASGRIFGAYAMGWYRQAPGKERELVAAINRGGSTNYADSVKGRFTISRDNAKNTVYLQMNSLKPEDTAVYYCAKRSSGRHFTYDYWGQGTQVTVSS | low polyreactivity
43 | QVQLVESGGGLVQAGGSLRLSCAASGRIFGAYAMGWYRQAPGKERELVAAITSGGSTYYADSVKGRFTISRDNAKNTVYLQMNSLKPEDTAVYYCNALRRSQPWKYDYWGQGTQVTVSS | low polyreactivity
